Source: the DeepSol protein solubility set

Test: soluble on expression in E. coli; label from the status in PepcDB or PDB records

| Sequence | soluble on expression in E. coli |
| --- | --- |
| MLKEAIYHRPKDNYAYAYDEKTIHIRIRTKRDDVQSTTLIYGDPYEWKDGKWISSSTPMKKTGSTALFDYWFISIEPKFKRLRYGFELKNDTDTLIYAERGFFSTTPNDDVGNFFCFPFIHANDVFKAPSWIKDTVWYQIFPERFANGDHTLNPENTLPWGSAEPTPTNFFGGDFAGIIQNLDYLVKLGISGIYFTPIFKAHSNHKYDTIDYMEIDPQFGTKETFKELVQACHTHGIKVMLDAVFNHSGYFFDKFQDVLQNGEQSAYKEWFHIHEFPIRTEPLPNYDTFAFTPYMPKLNTAHPDVKEYLLEVGRYWVREFNIDGWRLDVANEVDHNFWREFRSEIKALNSEVYILGEIWHDALPWLQGDQFDAVMSYPVTNALLSYFANDSIKANEFMKQITESLHSYSMNVNEAAFHLLDSHDTPRILTTCNGDKNKLKLLYVFHLSFIGSPCIYYGDEIGMDGGMDPDCRKCMVWDTEEQDHTLFTHVQTLISLRKQYKAFGGHGTFQFIEANDEYNYISYTKTYEDETIFFVLNPTNSDITASLPLHVTGKKIINIYTNEEFSAEASVLQVTLPPYGFSILKW | not soluble |
| TTLSCKVTSVEAITDTVYRVRIVPDAAFSFRAGQYLMVVMDERDKRPFSMASTPDEKGFIELHIGASEINLYAKAVMDRILKDHQIVVDIPHGEAWLRDDEERPMILIAGGTGFSYARSILLTALARNPNRDITIYWGGREEQHLYDLCELEALSLKHPGLQVVPVVEQPEAGWRGRTGTVLTAVLQDHGTLAEHDIYIAGRFEMAKIARDLFCSERNAREDRLFGDAFAFI | soluble |
| MSLQRFKFLMYQVVASDLDGTLLSPDHTLSPYAKETLKLLTARGINFVFATGRHHVDVGQIRDNLEIKSYMITSNGARVHDLDGNLIFAHNLDRDIASDLFGVVNDNPEIITNVYRDDEWFMNRHRPEEMRFFKEAVFNYALYEPGLLEPEGVSKVFFTCDSHEKLLPLEQAINARWGDRVNVSFSTLTCLEVMAGGVSKGHALEAVAKKLGYSLQDCIAFGDGMNDAEMLSMAGKGCIMGSAHQRLKDLHPELEVIGTNAEDAVPHYLRKLYLSEGHHHHHH | soluble |
| MSILQKLENSAAAAVKALYGTDPMEGQIQLQKTKREFKGHLTLVVFPFVKMSRKSPEATATEIGEWLLANESAVSAIEVVKGFLNLTIAPRVWLELLNEIRADINFGHKVATEDSPLVMVEYSSPNTNKPLHLGHVRNNLLGYSLSEIMKANGYRVVKTNIVNDRGIHICKSMLAWQKWGDGVTPEKAGKKGDHLIGDFYVLFDKHYKAELNSLMAEGKSKEEAEAASTLMAEAREMLRLWEAGDEKVVDLWRTMNQWVYDGFDATYKMMGVDFDKIYYESETYLVGKEEVLRGLEEGLFVKHSDGSVWADLTKDGLDEKLLLRADGTSVYMTQDIGTAKMRFNDYPINRMIYVVGNEQNYHFQVLSILLDRLGFEFGKGLVHFSYGMVELPEGKMKSREGTVVDADDLMDEMIRTAAEIAAEAGKAAEMDEEESREVARIVGLGSLKYFILKVDPRKNMTFNPKESIDFNGNTGSFVQYTYARIRSLMRRAEAAGYDIPSQLPTDLPLSEKEEALIQKVSEYAEVVSEAGHSYSPALIANYIYDLVKEYNQFYHDFSVLKEEDERIRAFRLALSEVVALTMRKGFALLGIEMPERM | not soluble |
| MTAPTAHDYDVVIIGGGPAGLTAAIYTGRAQLSTLILEKGMPGGQIAWSEEVENFPGFPEPIAGMELAQRMHQQAEKFGAKVEMDEVQGVQHDATSHPYPFTVRGYNGEYRAKAVILATGADPRKLGIPGEDNFWGKGVSTCATCDGFFYKGKKVVVIGGGDAAVEEGMFLTKFADEVTVIHRRDTLRANKVAQARAFANPKMKFIWDTAVEEIQGADSVSGVKLRNLKTGEVSELATDGVFIFIGHVPNTAFVKDTVSLRDDGYVDVRDEIYTNIPMLFAAGDVSDYIYRQLATSVGAGTRAAMMTERQLAALEVEGEEVTAAD | soluble |
| MKIALIGASGYVGSALLKEALSRGHHVTALVSRPERIAAQANLAAAKVDVQDSAQLAEQLKGFDAVLSAFSGHAQAEQFDYFVKGIRSIIAAAKAAQAPRLLVVGGAGSLEVAPGVQLVDTPEFPEQWKASALGAREALNLLRAETELNWTLLSPSAMLQPGQRTGQFRLGKDQLLVDAEGNSHISVEDYAVAMIDELEKGLEHHHHHH | not soluble |
| MDPSSENNSPMVSPNDDKIVKITVSSVMQGVKQIVVEMKDKETVSILKNRIEQETEVLTNRQVLLFKGMELKDNNKTMTDCGINSDAKITMNVKMSTGIVTNPTTTDILLMMPPIFPTNQDQLRKEIKGMHTVHRKPKKMSGIDANASLWTPEKQMENEFTRNRMKTLLRRKKHAPILSGTPVDSEIGSAQTFSPVATPPGELSSPSTVSSHVSSGSEPESDAEVVTEKELKLFFDPPETIEEHKQCRRSMVLAPSSEEELLENLKKFEAERKTKCNTCFKKLSAAQQTMHCKCLRIFCDRHRHPKNHTCVIDYKQDGRNKLKKNNSKVGDGGWRKAKFES | not soluble |
| MGSDKIHHHHHHMRPTQKGDYLNPMSDLFQDYSEAAARSGAYDEMFAQGHVARRSYGQVSGALRELSLADVTARADSMARTFLDRGVTFDYAGEERPFPLDIVPRVIPADEWNVLERGVAQRVKALEAFLNDVYGRMAVVTDGVIPRQLVTTSAHFHRAVHGFEPSGGVRVHVSGIDVVRDAAGTFRVLEDNVRVPSGVSYVLENRRAMAKGLPEAFGQQHIRPVEEYPRRLLSALRKTAPAGVDDPTVVVLTPGVFNSAYFEHTLLAGLMGVELVEGRDLICRGNRVYMRTTAGEQRVDVIYKRIDDDFLDPLQFRSDSMLGCPGLVNAARAGGVTIANAVGNGVADDKLVYSYVPDLIRYYLHEEPIIANVDTFRLEEKEAREHVLDRLDELVVKPVDGSGGKGLVIGPDATKDELDALRKRVIADPRGWIAQPVLQLSTVPTLSGDKFGPRHVDLRPFAVNDGDDVWVLPGGLTRVALKEGSLIVNSSQGGGSKDTWVLADSPQLPAEIIPRQSVTVREQVSVWPVESNWRDRQTEQQQ | not soluble |
| MGSDKIHHHHHHMEINVGAVISANRKQKGITQQALADFVGVSKASVSKWETGQSYPDITLLPILAAYFDVSIDKLMAYDAQLSSTEIRRIYTSMKQAFETQPGDAVLKSIRNLIRRYYACYPFLLQMGLLILNHYDLLPGTSQTAKVTEYVNEARLLFVRVRQNSQKAQLTAKAVELEGYSLLLLQRPDDVLALLGEYVPEQLPADSLIAGAFQQKGDFRRAIATSQSGLMQDLSIIMSQLTNYMTLLKDDPNRLAATYQRGQAIAKAFDLATLNPAVWLNFQLAALNGFAQQDKTDEAVALLQEFTHVLTATKMPLTLHGDAYFDAIEPWLEQLDLGSQSPRVSGQAKQVLADFVLQNPALAKIRTLPVVQPLLAELKQVSGHR | not soluble |
| MPHDPGATRLLAISPHLDDAVLSFGAGLAQAAQDGANVLVYTVFAGAAQPPYSPAAQRMHTIWGLAPDDDAVLYRRKEDIAALDHLRVAHRHGRFLDSIYRKLPDGRWLTAHVEGRQKLAVNDHSPDSDHDLVGEVADDIRSIIDEFDPTLVVTCAAIGEHPDHEATRDAALFATHEKNVPVRLWEDLPYAVFKSGAVELPQGFRLGSADVSSVKPEMRSQKFQAVERYSSQMVLLNGSENNLFDRLDEHARQNAPHGGYGETTWPVVRSDDS | soluble |
| MLKDQANQLEFPRDFLGISLADQPNKYYFIIRTQRIVLEADSSIQLIMEKLQSYKSKVALYFDGFQYQLGDFRLRVGKVVPTHSENVRGIVMEVEYLPISSMEKAQKVMEEFLEIWNEALAKRSLPGKFVNIDLNFGEFGLGDIYTPQHTAVRYALVMAHMIATVQAVRG | soluble |
| MQIEKLRGQGLDEFFQGILTLENLEECYAFFDDVCTVNEIQSMAQRFQVAKMLHDGKTYNVIESETGASTATISRVKRSLHYGNDMYDVVFSRMTKPE | not soluble |
| SLETQQEGMDISSSLRKLGAQSKLIQTYIDQSLMSPNVQLEEVTALNTNQFLIKQDMKEWSSELYPQLILLNSKSKGFVTKFNSYYPTLKSFVDNKEDREGFSDRLEVLQEMAMTNQENTQRQINELTDLKLQLDKKLKDFDTNVATAQGILSTDGTGKIDQLKNEILNTKKAIQNDLQQIALIPGALNEQGFAIFKEVYSLSKEIIEPAAQAGVAAYNKGKEINNSILEAEKKAVQEATEQGKTALEIESAKKAAREAIEKSKQGEIAAAAAAKTQEYDLMKVIDTEKIKKTFGVFAEVNKLTAEQRAYLDDLEKQNQKIYDLTTKLSIADLQKSMLLLTQNDLHTFANQIDVELDLLKRYKEDLNLIKNSITKLSTNVDTTSEQSQKDTLRQLKNVISYLEEQVYKF | soluble |
| MSLSPAPTTMDFTPAPLEDTSSRPQFCKWPCECPPSPPRCPLGVSLITDGCECCKMCAQQLGDNCTEAAICDPHRGLYCDYSGDRPRYAIGVCAQVVGVGCVLDGVRYNNGQSFQPNCKYNCTCIDGAVGCTPLCLRVRPPRLWCPHPRRVSIPGHCCEQWVCEDDAKRPRKTAPRDTGAFDAVGEVEAWHRNCIAYTSPWSPCSTSCGLGVSTRISNVNAQCWPEQESRLCNLRPCDVDIHTLIKAGKKCLAVYQPEASMNFTLAGCISTRSYQPKYCGVCMDNRCCIPYKSKTIDVSFQCPDGLGFSRQVLWINACFCNLSCRNPNDIFADLESYPDFSEIANEGHHHHHH | not soluble |
| MLLLQFSNMVEPTGPAIVEDERTKALNSYRRKLAECRDIEQKLKDLRKKESEMTKQFDKSENDIKSLQSVGQIVGEVLKQLSEEKFIVKATNGPRYVVGCRRSINKEELKQGTRVSLDMTTLTIMRQLPREVDPLVYKMSHEDPGNISYSDVGGLAEQIRELREVVELPLINPELFKRVGITPPKGCLLFGPPGTGKTLLARAVASQLDCNFLKVVSSAIVDKYIGESARMIREMFNYARDHQPCIVFMDEIDAIGGRRFSEGTSADREIQRTLMELLNQLDGFDSLGKVKVIMATNRPDTLDPALLRPGRLDRKIEIGLPNEQSRLEILKIHSNKITKHGEIDFEAVVKLSDGFSAADLRNVCTEAGMFAIRAEREFVIDEDFMKAVRKVGDAKRLETKLDYKPV | not soluble |
| ARVDQTPRSVTKETGESLTINCVLRDASYALGSTCWYRKKSGEGNEESISKGGRYVETVNSGSKSFSLRINDLTVEDGGTYRCGLGVAGGYCDYALCSSRYAECGDGTAVTVN | soluble |
| MGSDKIHHHHHHMARKDKIVTPSVTQKLQSLGYNVADWDDSKTTSKLTDEIITVLKKASKSENGNEGYPDRIYCNKKKKLLILVEEKPTMQEHNIESIKSGCIAGLKWYLKQFLSEKFSSWKIIGIAVSGDLSDQYKHKFSCFLIDKQKISLAENVNNFLKENEFIALFNNIDEEKAISKVTKVSKKINKLLRSIDSQKRPIILAALMISLYRSEKYDNNFPDIYENYNSEQILNNIYPTVKNILTAEDVPEEKLKSLELELNSINQDPSLKNTNILKEILKELDENIIQLFNDTFSTTSNYDIMGKFYEEFLRFAGVSNVKKGIVLTPRHIATLFTKLIPFKKNDKILDLCCGTGAFLIAGMNKLLSLKGIDAQNVKSNQLLGFEINPTMYICAISNMLFRGDGKSKIYNMDSINDDKVNKIISESAPTIGFINPPYSGKENKEDPTPKEITFLKKC | not soluble |
| ALHEATRDLLGADSPSTVAAEVGAAIESILEFRINVIRVHRDGQLQPVHVNDKAEELLAERPTYDVGEGFPGEAFEEQQASVYTDIRDHDGGTALEPVVSWLYVPISEYGIISVGQTDPDAFDETDLNLVQIIASNAEVALQRLQKERELQRENDRLEQFASTVS | not soluble |
| MNTQKPFENHLKSVDDLKTTYEEYRAGFIAFALEKNKRSTPYIERARALKVAASVAKTPKDLLYLEDIQDALLYASGISDKAKKFLTEDDKKESINNLIENFLEPAGEEFIDELIFRYLLFQGDSLGGTMRNIAGALAQQKLTRAIISALDIANIPYKWLDSRDKKYTNWMDKPEDDYELETFAKGISWTINGKHRTLMYNITVSLVKKNVDICLFNCEPEIYTPQKVHQQPEKYLLLGELKGGIDPAGADEHWKTANTALTRIRNKFSEKGLSPKTIFIGAAIEHSMAEEIWDQLQSGSLTNSANLTKTEQVGSLCRWIINI | soluble |
